Columns and labels:
[1] = target: 3β-HSD dehydrogenase type II (HSD3B2) (UniProt P26439); experiment: cross-linking; chemical crosslinking in solution, bands on a gel
[2] = target: 3β-HSD dehydrogenase type I (HSD3B1) (UniProt P14060); experiment: as above
[3] = target: T1, 3β-hydroxy-Δ^5-C27-steroid oxidoreductase (HSD3B7) (Homo sapiens, UniProt Q9H2F3); experiment: FRET from intrinsic tryptophan fluorescence to NADH, Morrison fit; assay type: binding
T1 construct: WT, N-terminal 6x histidine tag
T1 sequence (Q9H2F3 1-369): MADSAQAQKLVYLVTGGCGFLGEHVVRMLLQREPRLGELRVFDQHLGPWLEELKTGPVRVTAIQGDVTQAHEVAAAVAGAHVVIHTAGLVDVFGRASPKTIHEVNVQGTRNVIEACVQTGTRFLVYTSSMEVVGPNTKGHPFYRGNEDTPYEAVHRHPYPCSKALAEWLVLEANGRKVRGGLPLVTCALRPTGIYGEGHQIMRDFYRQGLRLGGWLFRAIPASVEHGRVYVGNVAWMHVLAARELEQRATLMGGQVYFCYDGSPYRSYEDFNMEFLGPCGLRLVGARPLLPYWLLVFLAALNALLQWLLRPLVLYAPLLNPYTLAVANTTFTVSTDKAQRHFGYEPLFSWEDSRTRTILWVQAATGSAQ

purified protein = substrate: NC(=O)c1ccc[n+]([C@@H]2O[C@H](COP(=O)([O-])OP(=O)(O)OC[C@H]3O[C@@H](n4cnc5c(N)ncnc54)[C@H](O)[C@@H]3O)[C@@H](O)[C@H]2O)c1; experiment: purified protein; assay type: biochemical, Homo sapiens; conditions: varied: cofactor
[4] = substrate: CC(CCCC(C)C1CCC2C3C(O)C=C4C[C@@H](O)CC[C@]4(C)C3CC[C@]12C)C(=O)O; experiment: steady-state kinetics of purified enzyme (NAD(P)H-Glo), Km; assay type: biochemical, Homo sapiens; design: kcat / Vmax: unit not given here; conditions: NAD+ predicted oxysterol pocket; F93, F205, I201 (docking)
[5] = substrate: CC(C)CCC[C@@H](C)[C@H]1CC[C@H]2[C@@H]3[C@H](O)C=C4C[C@@H](O)CC[C@]4(C)[C@H]3CC[C@]12C; experiment: as above; assay type: biochemical, Homo sapiens; design: kcat / Vmax: unit not given here; conditions: NAD+ predicted oxysterol pocket; F93, F205, I201; near Y-S-N-K tetrad (docking)
[6] = substrate: C[C@H](CCCC(C)(C)O)[C@H]1CC[C@H]2[C@@H]3[C@H](O)C=C4C[C@@H](O)CC[C@]4(C)[C@H]3CC[C@]12C; experiment: as above; assay type: biochemical, Homo sapiens; design: kcat / Vmax: unit not given here; conditions: NAD+ predicted oxysterol pocket; F93, F205, I201 (docking)
[7] = substrate: C[C@@H](CO)CCC[C@@H](C)[C@H]1CC[C@H]2[C@@H]3[C@H](O)C=C4C[C@@H](O)CC[C@]4(C)[C@H]3CC[C@]12C; experiment: as above; assay type: biochemical, Homo sapiens; design: kcat / Vmax: unit not given here; conditions: NAD+ predicted oxysterol pocket; F93, F205, I201, Q208 (docking)
[8] = substrate: CC(C)CCC[C@@H](C)[C@H]1CC[C@H]2[C@@H]3[C@H](O)C=C4C[C@@H](O)CC[C@]4(C)[C@H]3CC[C@]12C; experiment: steady-state kinetics of purified mutant, apparent Km; assay type: biochemical, Homo sapiens; conditions: NAD+ predicted oxysterol binding pocket
[9] = substrate: CC(C)CCC[C@@H](C)[C@H]1CC[C@H]2[C@@H]3[C@H](O)C=C4C[C@@H](O)CC[C@]4(C)[C@H]3CC[C@]12C; experiment: steady-state kinetics of purified mutant, Km; assay type: biochemical, Homo sapiens; conditions: NAD+ predicted oxysterol binding pocket
[10] = conserved Rossmann fold domain (docking), binds first

3β-HSD dehydrogenase type II (HSD3B2) (from UniProt P26439 1-372) (enzyme)
stoichiometry N [1]: 2

3β-HSD dehydrogenase type I (HSD3B1) (from UniProt P14060 1-373) (enzyme)
stoichiometry N [2]: 2

NC(=O)C1=CN([C@@H]2O[C@H](COP(=O)(O)OP(=O)(O)OC[C@H]3O[C@@H](n4cnc5c(N)ncnc54)[C@H](O)[C@@H]3O)[C@@H](O)[C@H]2O)C=CC1 [NADH]
Kd [3]: 780 nM

B1: 3β-hydroxy-Δ^5-C27-steroid oxidoreductase (HSD3B7) (Homo sapiens) (protein)
chain: MADSAQAQKLVYLVTGGCGFLGEHVVRMLLQREPRLGELRVFDQHLGPWLEELKTGPVRVTAIQGDVTQAHEVAAAVAGAHVVIHTAGLVDVFGRASPKTIHEVNVQGTRNVIEACVQTGTRFLVYTSSMEVVGPNTKGHPFYRGNEDTPYEAVHRHPYPCSKALAEWLVLEANGRKVRGGLPLVTCALRPTGIYGEGHQIMRDFYRQGLRLGGWLFRAIPASVEHGRVYVGNVAWMHVLAARELEQRATLMGGQVYFCYDGSPYRSYEDFNMEFLGPCGLRLVGARPLLPYWLLVFLAALNALLQWLLRPLVLYAPLLNPYTLAVANTTFTVSTDKAQRHFGYEPLFSWEDSRTRTILWVQAATGSAQ
notes: WT, N-terminal 6x histidine tag
Km (purified protein; [10]): 45.8 µM | Vmax (purified protein; [10]): 587.2 (550.0, 628.7) | kcat (purified protein; [10]): 24.7 (23.1, 26.4) | kcat/Km (purified protein; [10]): 9000 ± 3200 M⁻¹ s⁻¹ | Km [4]: 8.6 µM | Vmax [4]: 551.8 (513.5, 593.2) | kcat [4]: 23.2 (21.6, 24.9) | kcat/Km [4]: 45000 ± 17000 M⁻¹ s⁻¹ | Km [5]: 17.4 µM | Vmax [5]: 735 (669.5, 812.3) | kcat [5]: 30.9 (28.1, 34.1) | kcat/Km [5]: 30000 ± 10000 M⁻¹ s⁻¹ | Km [6]: 18.3 µM | Vmax [6]: 901.8 (785.3, 1044) | kcat [6]: 37.9 (33.0, 43.9) | kcat/Km [6]: 35000 ± 12000 M⁻¹ s⁻¹ | Km [7]: 3.8 µM | Vmax [7]: 532.0 (493.0, 573.4) | kcat [7]: 22.4 (20.7, 24.1) | kcat/Km [7]: 98000 ± 22000 M⁻¹ s⁻¹

B2: 3β-hydroxy-Δ^5-C27-steroid oxidoreductase (HSD3B7) (Homo sapiens; F93A) (protein)
chain: MADSAQAQKLVYLVTGGCGFLGEHVVRMLLQREPRLGELRVFDQHLGPWLEELKTGPVRVTAIQGDVTQAHEVAAAVAGAHVVIHTAGLVDVAGRASPKTIHEVNVQGTRNVIEACVQTGTRFLVYTSSMEVVGPNTKGHPFYRGNEDTPYEAVHRHPYPCSKALAEWLVLEANGRKVRGGLPLVTCALRPTGIYGEGHQIMRDFYRQGLRLGGWLFRAIPASVEHGRVYVGNVAWMHVLAARELEQRATLMGGQVYFCYDGSPYRSYEDFNMEFLGPCGLRLVGARPLLPYWLLVFLAALNALLQWLLRPLVLYAPLLNPYTLAVANTTFTVSTDKAQRHFGYEPLFSWEDSRTRTILWVQAATGSAQ
notes: F93A mutant
Km [8]: 58.2 µM | Vmax [8]: 286.5 (224.2, 405.0) | kcat [8]: 14.3 (11.2, 20.3) | kcat/Km [8]: 4100 ± 2000 M⁻¹ s⁻¹

B3: 3β-hydroxy-Δ^5-C27-steroid oxidoreductase (HSD3B7) (Homo sapiens; F205A) (protein)
chain: MADSAQAQKLVYLVTGGCGFLGEHVVRMLLQREPRLGELRVFDQHLGPWLEELKTGPVRVTAIQGDVTQAHEVAAAVAGAHVVIHTAGLVDVFGRASPKTIHEVNVQGTRNVIEACVQTGTRFLVYTSSMEVVGPNTKGHPFYRGNEDTPYEAVHRHPYPCSKALAEWLVLEANGRKVRGGLPLVTCALRPTGIYGEGHQIMRDAYRQGLRLGGWLFRAIPASVEHGRVYVGNVAWMHVLAARELEQRATLMGGQVYFCYDGSPYRSYEDFNMEFLGPCGLRLVGARPLLPYWLLVFLAALNALLQWLLRPLVLYAPLLNPYTLAVANTTFTVSTDKAQRHFGYEPLFSWEDSRTRTILWVQAATGSAQ
notes: F205A mutant
Km (purified protein): 93.8 µM | Vmax (purified protein): 288.2 (255.0, 330.6) | kcat (purified protein): 5.8 (5.1, 6.6) | kcat/Km (purified protein): 1000 ± 400 M⁻¹ s⁻¹ | Km [9]: 11.2 µM | Vmax [9]: 76.6 (62.5, 96.0) | kcat [9]: 1.5 (1.3, 1.9) | kcat/Km [9]: 2200 ± 700 M⁻¹ s⁻¹

Reference: paper PMC11648244, “Substrate specificity and kinetic mechanism of 3β-hydroxy- Δ ^5-C27-steroid oxidoreductase” (The Journal of Biological Chemistry, 2024)
